Test results published in paper PMC12153317 (2025).
Values joined by “and” are separate entries in the source; they are usually repeats but may differ in a detail not shown here. Equal entries are not always repeated.

B1: S1V2-65 recombinant human IgG1 (antibody, V domains shown)
VH: EVQLVQSGAEVKKPGETLKISCKGSGYSFTNYWIGWVRQMPGKGLECMGIIDPSDSETRYSPSFQGQVTISADKSTNTAFLQWSTVKASDTAIYYCARLGYGDSPPFDFWGQGAGVTVS
VL: MTQSPLSLPVTPGESASISCRSSQSLLYSNGYNHLDWYVQKPGQPPQLLIFLGSTRASGVSDRVSGSGSGTDFTLQISRVEAEDVGVYYCMQALETPYTFGQGTKLEVK
B2: S1V2-17 recombinant human IgG1 (antibody, V domains shown)
VH: QVKLVQSGAEVKKPGASVKVSCKVSGYTLSELSIHWVRQVPGKGLESMGGFDPEDDGAIYAESFQGRVTMTEDTSTDTSFMELHSLRSEDTAVYYCVTWLVGTTVAAYWGQGTLVTVS
VL: MTQTPFSLPVTPGEPASISCRSSQSLLYSNGYNHLDWYLQKPGQSPQLLIYLGSYRASGVPDRFSGSGSGTDFTLKISRVEADDVGVYYCMQALQAPRTFGQGTKVEIK
B3: S1V2-60 recombinant human IgG1 (antibody, V domains shown)
VH: EVQLVQSGAEVSEPGKSLKISCKGSAYSFINYWIGWVRQMPGKGLECMGIIDPSDSETRYNPSFEGHVLISADTSINTAYLQWSSLRASDTAMYYCVRLGYGDSPPFDSWGQGTLVTVS
VL: MTQSPFSLPVTPGEPASISCRSSQSLLYSNGYNHLDWYQQKPGQPPQLLIFLGSRRASGVPDRFSGSGSGTDFTLKISRVEAEDVGVYYCMQALQDPYTFGQGTKLEIK
B4: S8V1-157 recombinant human IgG1 (antibody, V domains shown)
VH: EVQLVQSGAEVKKPGASVKVSCKVSGYRLTALSMHWVRQAPGKGLEWMGGFDPEEDETIYAQNFQGRVTLTEDTSTDTVYMELSSLRSEDTGVYYCATLMGANPFDYWGQGTLIIVSG
VL: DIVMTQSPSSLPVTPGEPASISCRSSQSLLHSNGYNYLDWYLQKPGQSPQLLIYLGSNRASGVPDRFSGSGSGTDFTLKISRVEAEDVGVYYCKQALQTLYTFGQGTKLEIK
B5: FI6v3 recombinant human IgG (antibody, V domains shown)
VH: QVQLVESGGGVVQPGRSLRLSCAASGFTFSTYAMHWVRQAPGKGLEWVAVISYDANYKYYADSVKGRFTISRDNSKNTLYLQMNSLRAEDTAVYYCAKDSQLRSLLYFEWLSQGYFDYWGQGTLVTVSS
VL: not shown

Key:
Test in all cases: ELISA
[1] = target: pandemic H2 HA (soluble HA ectodomain, ELISA) (influenza A virus)
[2] = target: pre-pandemic H5 HAs (soluble HA ectodomains, ELISA) (influenza A virus)
[3] = target: all seasonal H3s (1968–2020) assayed (soluble HA ectodomains, ELISA) (influenza A virus)
[4] = target: specific HAs not engaged in ELISA (soluble HA ectodomains) (influenza virus)

Binder	Kd [1]	Kd [2]	Kd [3]	Kd [4]
B1	10000 pM	100 pM	160 pM and 210 pM and 250 pM	> 100000 pM
B2	6500 pM	140 pM	–	> 100000 pM
B3	8800 pM	100 pM	–	> 100000 pM
B4	2500 pM	< 100 pM	–	> 100000 pM
B5	360 pM	440 pM	–	–
